Assay results published in the DeepSol protein solubility set.

assay: soluble on expression in E. coli; label from the status in PepcDB or PDB records

| Sequence | soluble on expression in E. coli |
| --- | --- |
| MGSDKIHHHHHHMQLPFIAVDYVISVGLCAASTNPSQDKRIKKITVLAVSGKGDLPISFIENQALLDEAAMLTCMAYVDLNPIRAQLADTPEQSDHTSIQLRIRAALKGEQPKNLLPFIVNERDNQPNGIAFLLSDYLELVDDTGRIIRSDKRGAISENSAKLLARLNIPHDNWLKLTTEFGKLFRGPVGTLQELTDYCEHLEKRRRHFAKCCLHFHSN | not soluble |
| MGSDKIHHHHHHMQTNDKVLKAFHSVKDVGSERSIVELGWLEVVSVKPPKIVVRLNLPNFAIAQRGQMAVDIRESIKSLEDIEEVQIEIGDSSPSKESPIGQAGHGSQSQGLTAIPKVKNVIAISSGKGGVGKSTVAVNLACALSQKGFKVGLLDADIYGPNTPYMLGVSEITPEVSGSGAEQKIIPIETCGIGMVSMGLLIDQNQPVIWRGPMLNGIIRQFLYQASWGERDFLIVDLPPGTGDAQLSLAQAVPMAGVIIVTTPQNVSLQDSRRGLAMFKQMNIPVLGVIENMTYFIPPDQPQKSYKIFGSGGGSQLAKENNVPLLSQIPIETDTFSGTGKDLPVVHTSRDSITAKVFLELAGTLCNALSVKQ | not soluble |
| MNIVVLISGNGSNLQAIIDACKTNKIKGTVRAVFSNKADAFGLERARQAGIATHTLIASAFDSREAYDRALIHEIDMYAPDVVVLAGFMRILSPAFVSHYAGRLLNIHPSLLPKYPGLHTHRQALENGDEEHGTSVHFVTDELDGGPVILQAKVPVFAGDSEDDITARVQTQEHAIYPLVISWFADGRLKMHENAAWLDGQRLPPQGYAADE | soluble |
| MGSDKIHHHHHHMCLVVAARWPSRLVSSVKEDKMKPSTSRLTLLAGILGLPMALCLPLAAQAQSNQWQVNGFIGQGYISADGSEFIVGESGDTFDVTEAALHLSWMPDEHFRVAGAARYRQWGNLDESGLSADYLFAEYKFILDQGYVGARGGLFKSEAGFYTSTRDVSFTRPGILLPQSVYSDYLRDALLHITGGELFGGHPLLDGSLEWHLTLGDAQTSDDLTRNVVGSEEFGRFDADGYWGADLEYQDDSLRLGLTYFDAKSRYQSHLGGPFADGSLRSKHWIVSAQYRINFLEFTGEYLHWDRYVGGVFVPPELGIYEVRGYGYYLDVRGYLPGDVEVFVRYDHQVQDEKDPDGDKLAERGLPGYFGYAHDWTIGTRWLPAKDWMVAAEYHKVRGAAWVTPILLPNPAVQDKDWSLFAIEISYKFQW | not soluble |
| MGSDKIHHHHHHMSQVVIAVLANAGGVGKSTLSVHLAYEVSRRKLKVALLDLDPQRSLDVFCGLEAAEAEKTMFKVLSKDFIGDWALASAWDEPRIEVCQGHPLLAEIANELVIRKRGEYMLADRLQKYSLPHDLVIVDCPATLGMLNVNALAAATHILVPIQLEMKAISGSAELVEWCMNTSEELQLTPKPQILGFVPSMYDETVAMHRQYHSQLPEIALQLDIKLYPKIRSSNEFKNASAHGLPLHKYRNKHPACKDFKQIADDVIQLIKNK | not soluble |
| MQGMREIKRRIRSVKNTRQITKAMKMVAAAKLRRAQETAENARPYADKIKEVISSIAAGTKDFSHPMLEARPVKKTGYMVITSDRGLAGPYNANILRLVSKTIEERHQSKDEYVIFAVGRKGRDFFKKRGYPVVEEVTGISDTPSLTEIQDIAQSAIGMFADETFDKLTIFYNEFVSPIVQRPVEKQLLPLTSEEVLDGPVSAYEYEPDSESVLEVLLPKYAETLIYSALLDAKASEFGARMTAMGNATDNATEMLETLTLQFNRARQAAITQEIAEIVAGANALR | soluble |
| MSLSIKLVAIDIDGTLLNSQHKITPRVKEALQKANEQGVRIVLCTGRPLPGVKEQLDELALYGENDFVITYNGSLVQATKDNTIISRYTLSYEDFLEIEMYSRKVGAHLHTIDDSAIYTANRNIGKYTIHEASLVNMPLKYRTVDEMTPEMNIIKMMMIDEPEVLDPAIAKLPLHFTEKYTTVKSTPFYYEIMNKNASKGNALAKLADHLGLNKDEVMAIGDNENDLSMIDYAGIGVAMGNATENVKTIADVHTTSNDEDGVAQIIEKMVLIEGHHHHHH | soluble |
| MARARARPGAVMSISGGLVRRRAEGRPLPAASAMSTVTLHRVLRASPERVYRAFLDAAALSKWLPPHGFTNTVEHLDARVGGTFRMAFTQFGSGQRHAFGGTYRELVPNALLRYDDVFDDPSLPGTLLTTVRLLPLPCGTDLHVVQEGIPEQIPLHACYLGWQESLTLLALLVEAQRAELEHHHHHH | not soluble |
| MGSDKIHHHHHHMHPALWISKTGLDAQQTDISVISNNVANASTIGYKKSRAVFEDLLYQTVNQAGGISADNTKLPNGLNIGAGTKVVATQKMFSQGNMLTTDNSLDLMIEGPGFFEVQLPDGTPAYTRNGQFSLDDTGQIVTPGSGYVLQPAITIPENATGITVSAGGEVSVKIPGTAESQVIGQITMTDFINPSGLDPLGQNLYTETGASGTPIQGTASLDGLGAIRQGALETSNVNVTEELVNLIQSQRIYEMNSKVISAVDQMLAYINQNL | not soluble |
| MTTRCPWVGEQSIYIDYHDKEWGKPEFDSQKLFEKICLEGQQAGLSWITVLKKRESYREAFHQFDPKKIAKMTALDIDACMQNSGLIRHRAKLEAIVKNAKAYLAMEKCGENFSDFIWSFVNHKPIVNDVPDLRSVPTKTEVSKALSKALKKRGFVFIGETTCYAFMQSMGLVDDHLNDCPCKTSLEHHHHHH | soluble |
| EEQIMRRNEDSWLIDGATPLEDVMRALNIHTFPRDENYETIGGFMMYMLRKIPKKTDFVLYDKYKFEIIDTENFRIDQLMVSFRK | soluble |
| MNYEIKQEEKRTVAGFHLVGPWEQTVKKGFEQLMMWVDSKNIVPKEWVAVYYDNPDETPAEKLRCDTVVTVPGYFTLPENSEGVILTEITGGQYAVAVARVVGDDFAKPWYQFFNSLLQDSAYEMLPKPCFEVYLNNGAEDGYWDIEMYVAVQPKHH | soluble |
| SLGTLPPELQNTCVARGKLPLLLDLDNTLLHAQAASATGCDVRLQDWIDPYGEPELYRFELPCNRKTYYMKLRPHLRTFLKKLEPFYEMSVYTNATQEYADIVIAILDGNRQLFQDRIVARDSGFRGEASENKAVRRLYEGMDKRCIVAFDDRQNIWTDLPLTHVVKAQHYDFFDSHKTELNAYYPPLSNGIEGMTAPDVLGNRQNED | soluble |
| SGGRRSSWIKNWTLWKHFKDYFPIHLIKTQDLDPSHNYIFGFHPHGIMAVGAFGNFSVNYSDFKDLFPGFTSYLHVLPLWFWCPVFREYVMSVGLVSVSKKSVSYMVSKEGGGNISVIVLGGAKESLDAHPGKFTLFIRQRKGFVKIALTHGASLVPVVSFGENELFKQTDNPEGSWIRTVQNKLQKIMGFALPLFHARGVFQYNFGLMTYRKAIHTVVGRPIPVRQTLNPTQEQIEELHQTYMEELRKLFEEHKGKYGIPEHETLVLK | soluble |
| MSADTLQIAYSPCPNDTFVFDALAHGRVPGAPALDVTFADIDITNGMAERGELDVLKVSYAVLPYVLDDWALLPCGGALGRGCGPLVLTREADADLRGRTVAVPSETSTAYLLFRLWAADTVPGGVGEIVVMPFHEIMPAVRDGKVDAGLVIHEARFTYQNYGLHKLADMGEHWEHTTGLPIPLGAIIARRSLGAPALTRLADAVRASVRAAWDDPEASRPYVMEHAQEMDPAVADQHIGLYVNEFTADLGEDGYAAIRGLLTRAAAEGLVPALGPDALAFP | not soluble |
| ELAAIQNLGGMDVLCTDKTGTITEDRVVLVQHLNPLGDLSDEVLNLAYLNSSYQTGWKNLMDIAVINFYEEHQWKTPFKNVTKIDEIPFDFSRRRLTVVVNADDHQLMITKGAVEEMEEVCTHAQINGEIVPLSTAVREELRRVNVQMNKQGMRVLAVAVKKDVHKEAVYSVEDEKEMTLIGFMGFLDP | not soluble |
| MEKEIKEKNLPLELTLVEASPRVGGKIQTVKKDGYIIERGPDSFLERKKSAPQLVKDLGLEHLLVNNATGQSYVLVNRTLHPMPKGAVMGIPTKIAPFVSTGLFSLSGKARAAMDFILPASKTKDDQSLGEFFRRRVGDEVVENLIEPLLSGIYAGDIDKLSLMSTFPQFYQTEQKHRSLILGMKKTRPQGSGQQLTAKKQGQFQTLSTGLQTLVEEIEKQLKLTKVYKGTKVTKLSHSGSCYSLELDNGVTLDADSVIVTAPHKAAAGMLSELPAISHLKNMHSTSVANVALGFPEGSVQMEHEGTGFVISRNSDFAITACTWTNKKWPHAAPEGKTLLRAYVGKAGDESIVDLSDNDIINIVLEDLKKVMNINGEPEMTCVTRWHESMPQYHVGHKQRIKELREALASAYPGVYMTGASFEGVGIPDCIDQGKAAVSDALTYLFS | not soluble |
| MNALKQAVRTYARCHANRDGLAVTTVPGLRTMCVEDPAGDLHSVYRPLVCFVLQGAKRMIVGSEERVFYGGQSVIVAADMPVVGRIVEASSGAPYLAIAVELEMALLREVAAQIGDTCSLRSSGMQTLFAEDTEGAMLDCASRLMHLLDRPDAVPILRPGIMRELHYWLLSGPHGPALRTLADPDSYAGRLAAAIAILRTEYRSRVPVERLAAAAAMSLTAFHKHFKMMTSLTPGQYQKRLRLIEARRLMLDQGFSASNAAFEVGYESVSQFTREYGRLFNMPPKQDALRARAISSIFKHSQADALGAELH | not soluble |
| MKVFIIGAAGGIGNRLSSLLHARGDAVSGMHRNLEQASKITDTGATAVLGDLIHNSTEELAELFRGHDAIVFSAGAHGTGQENTTLIDGAGLRKAADAASAANVSRFILVSAFPESSRGENTTENFEHYMKVKKSADVYLSHTDLDWVIVRPGVLQDEAGDGLVTAGLAINYGNVARDNVAAFIDEALHQPQLSKIIVELTDGSTPVAEAVERLIKLEHHHHHH | soluble |
| MHHVYVIECSDGTYYTGYTTDVQRRVAEHNAGDGAKYTRGRTPVTLRHTESFDSKSEAMRREYRIKQLSRAQKEALFLEHHHHHH | soluble |
| MSIASVASVFKGEHAVGSTVTVRGWVRTRRDSKAGISFLAVYDGSCFNPIQGVVPNSLENYDNEVLKLTAGCSVIVTGDIVESPGAGQAYELQVTAVEVTGWVEDPDTYPMAAKRHSIEHLRELAHLRPRTNIIGAVARVRNCLSQAIHRFYHENGFVWVSTPLITASDCEGAGEMFRVSTLDMENLPRTSDGKVDYDKDFFGKEAFLTVSGQLNGETYACALSKIYTFGPTFRAENSNTSRHLAEFWMVEPEVAFATLNDIAGLAEGMLKYAFNAVLTERMDDLQFFAQHVDKTVIERLQSFVSSDFAQVDYTDAVEILQKSGREFEFPVSWGIDLSSEHERYLAEEHFKAPVVVKNYPKDIKAFYMRLNEDGKTVAAMDVLAPGIGEIIGGSQREERLDVLDMRLEEMDLNKEDYWWYRDLRRYGTVPHAGFGLGFERLVSYVTGVSNIRDVIPFPRAPRTANFLEHHHHHH | soluble |
| MGSDKIHHHHHHMKKEDKTPSRLIQLGKIYRLIEQFEEISRIELSKLSGLAPASITSLSRSLIEKRLIMEKTSRNTDNRGRPAIALCVSPFYWQALCATLVEDRFEIILSELDGVIIEQSVFPLQKDDLECLDKFLVKSVKQFLAETHSLARPITFSVTVGGELDKNGYLIKLGCTKFAHLDLKSLFTPYFNIPILIAEYFKTWLLAESTLGNVINCDDVLFLQLDDEINLSVLSEGELLFSREQDKININHLIVPRLNELQALINHDLPEVERYQVQHQVTHRAIAQFIDALYPNRVFSNNSEKMNFLCEQIQLKDKNALRIIEHITDCLAYILMNLVHIFSARRVMLNSSLLQLKDFLLEQLNRKLKSYLVDNISTVSVIAGKYEWNSPIVAASAIKQGIYDGSLLTSLVKQEENIINF | not soluble |
